How the values were obtained:
Type in all cases: binding, human
SCRIB_PDZ_1 = assay: nHU-MS, SCRIB_PDZ_1 bait, total Jurkat extracts (Exploris MS)
Description: (§1) To further establish the repeatability and robustness of the nHU-MS assay, we repeated the experiments using a different mass spectrometer and six different PDZ domain baits taken from SCRIB (PDZ_1 and PDZ_2), discs large MAGUK scaffold protein 1 (DLG1, PDZ_1, and PDZ_2), Tax1 binding protein 3 (TAX1BP3), and SNX27 (fig. S3B and table S1). […] Of the studied baits, the PDZ domain of SNX27 turned out to be the most promiscuous with 103 statistically significant interaction partners (while 180 SNX27 binding partners were identified in total on the basis of the three independent nHU-MS experiments).
(§2) For saturating streptavidin resin with biotinylated peptides or biotin, 50 μl of streptavidin resin was mixed with biotin or peptide at 40 to 60 μM concentration in 6 to 6.5 resin volume for 60 min. To saturate streptavidin resin with biotinylated proteins, 50 μl of streptavidin resin (Streptavidin Sepharose High Performance, Cytiva) was mixed with biotinylated MBP or MBP-PDZ at 40 to 50 μM concentration in 20× resin volume for 60 min. After saturation, resins were washed a single time [10 resin volume, holdup buffer: 50 mM tris (pH 7.5), 300 mM NaCl, and 1 mM TCEP, 0.22-μm filtered] and were depleted with biotin (10 resin volume, 10 min, holdup buffer supplemented with 100 μM biotin). Last, resins were washed two times (10 resin volume, holdup buffer).
(§3) For single-point nHU experiments carried out at ~10 μM bait concentration, 50 μl of saturated streptavidin resin was mixed with 200 μl of cell lysate (2 mg/ml). Titration experiments were carried out by mixing control and bait-saturated resin and keeping the total resin volume constant; e.g., ~5 μM bait concentration can be achieved by mixing 25 μl of bait-saturated streptavidin resin with 25 μl of control resin and 200 μl of cell lysate (2 mg/ml). Control and bait-saturated resins were prepared in larger amounts, and a serial dilution was prepared with these presaturated resins to achieve different resin ratios.
(§4) Unless specified elswhere, the nHU mixture was incubated at 4°C for 2 hours. After the incubation ended, the resin was separated from the supernatant by a brief centrifugation (15 s, 2000 g). Then, half of the supernatant was removed by pipetting without any delay to avoid any resin contamination; e.g., 100 μl of supernatant is collected if 200 μl of cell lysate was used as analyte. Alternatively, the supernatant can be centrifuged an additional time to clarify it further, removing any possible resin contamination. In principle, the separation of the supernatant should be as fast as possible since any delay can perturb the equilibrium. […] Alternatively, the resin can be separated from the supernatant using filter plates (e.g., various products of Millipore, Burlington, MA) or spin columns (e.g., Pierce spin cups—cellulose acetate filter from Thermo Fisher Scientific, Waltham, MA) to achieve faster separation.
The nHU samples were precipitated with trichloroacetic acid (TCA) 20% overnight at 4°C and centrifuged at 14,000 rpm for 10 min at 4°C. The protein pellets were washed twice with 1 ml of cold acetone and air-dried. The protein extracts were solubilized in 8 M urea, reduced with 5 mM TCEP for 30 min, and alkylated with 10 mM iodoacetamide for 30 min in the dark. Double digestion was performed at 37°C with 500 ng of endoproteinase Lys-C (Wako, Richmond, USA) for 4 hours, followed by fourfold dilution and an overnight digestion with 500 ng of trypsin (Promega, Charbonnieres les Bains, France). Peptide mixtures were then desalted on a C18 spin-column and dried on a speed vacuum.
(§5) Samples were analyzed using an Ultimate 3000 nano-RSLC coupled in line via a nano-electrospray ionization source, with an LTQ-Orbitrap ELITE mass spectrometer (Thermo Fisher Scientific, San Jose, CA) or with the Orbitrap Exploris 480 mass spectrometer (Thermo Fisher Scientific, Bremen, Germany) equipped with a high field asymmetric ion mobility spectrometry (FAIMS) module. […]

SCRIB_PDZ_2 = assay: nHU-MS, SCRIB_PDZ_2 bait, total Jurkat extracts (Exploris MS)
Description: as §1, §2, §3, §4
(§6) The nHU samples were precipitated with trichloroacetic acid (TCA) 20% overnight at 4°C and centrifuged at 14,000 rpm for 10 min at 4°C. The protein pellets were washed twice with 1 ml of cold acetone and air-dried. […]
as §5

TX1BP3_PDZ = assay: nHU-MS, TX1BP3_PDZ (TAX1BP3) bait, total Jurkat extracts (Exploris MS); details: nHU-MS, total Jurkat extract
Description: as §1, §2, §3
Unless specified elswhere, the nHU mixture was incubated at 4°C for 2 hours. After the incubation ended, the resin was separated from the supernatant by a brief centrifugation (15 s, 2000 g). Then, half of the supernatant was removed by pipetting without any delay to avoid any resin contamination; e.g., 100 μl of supernatant is collected if 200 μl of cell lysate was used as analyte. […]
as §5

DLG1_PDZ_1 = assay: nHU-MS, DLG1_PDZ_1 bait, total Jurkat extracts (Exploris MS)
Description: as §1, §2
(§7) For single-point nHU experiments carried out at ~10 μM bait concentration, 50 μl of saturated streptavidin resin was mixed with 200 μl of cell lysate (2 mg/ml). […]
as §5

SNX27_PDZ = assay: nHU-MS, SNX27_PDZ bait, total Jurkat extracts, series 2 (Exploris MS); details: Jurkat, series 2, n = 3
Description: as §1, §2, §3, §4, §6, §5

DLG1_PDZ_2 = assay: nHU-MS, DLG1_PDZ_2 bait, total Jurkat extracts (Exploris MS); details: Jurkat extract
Description: as §1, §2, §7, §5

B1: EWSR1 (protein, UniProt Q01844 1-656, looked up)
RNA-binding protein EWS: MASTDYSTYSQAAAQQGYSAYTAQPTQGYAQTTQAYGQQSYGTYGQPTDVSYTQAQTTATYGQTAYATSYGQPPTGYTTPTAPQAYSQPVQGYGTGAYDTTTATVTTTQASYAAQSAYGTQPAYPAYGQQPAATAPTRPQDGNKPTETSQPQSSTGGYNQPSLGYGQSNYSYPQVPGSYPMQPVTAPPSYPPTSYSSTQPTSYDQSSYSQQNTYGQPSSYGQQSSYGQQSSYGQQPPTSYPPQTGSYSQAPSQYSQQSSSYGQQSSFRQDHPSSMGVYGQESGGFSGPGENRSMSGPDNRGRGRGGFDRGGMSRGGRGGGRGGMGSAGERGGFNKPGGPMDEGPDLDLGPPVDPDEDSDNSAIYVQGLNDSVTLDDLADFFKQCGVVKMNKRTGQPMIHIYLDKETGKPKGDATVSYEDPPTAKAAVEWFDGKDFQGSKLKVSLARKKPPMNSMRGGLPPREGRGMPPPLRGGPGGPGGPGGPMGRMGGRGGDRGGFPPRGPRGSRGNPSGGGNVQHRAGDWQCPNPGCGNQNFAWRTECNQCKAPKPEGFLPPPFPPPGGDRGRGGPGGMRGGRGGLMDRGGPGGMFRGGRGGDRGGFRGGRGMDRGGFGGGRRGGPGGPPGPLMEQMGGRRGGRGGPGKMDKGEHRQERRDRPY
pKapp (nHU-MS) (SCRIB_PDZ_1; SCRIB_PDZ_1&Jurkat (Exploris)): 4.689 | pKapp (nHU-MS) (SCRIB_PDZ_2; SCRIB_PDZ_2&Jurkat (Exploris)): 4.691

B2: NBDY: Negative regulator of P-body association (protein, UniProt A0A0U1RRE5 1-68, looked up)
Negative regulator of P-body …: MGDQPCASGRSTLPPGNAREAKPPKKRCLLAPRWDYPEGTPNGGSTTLPSAPPPASAGLKSHPPPPEK
Ratio SCRIB_1/MBP (SCRIB_PDZ_1; nHU-MS, SCRIB_PDZ_1, total Jurkat extract): 1.029 | BI (SCRIB_PDZ_1; nHU-MS, SCRIB_PDZ_1 bait vs MBP, total Jurkat extract): -0.02908 | Difference log2 (SCRIB_PDZ_1; nHU-MS, SCRIB_PDZ_1 vs MBP, total Jurkat extract): 0.04136 | BI (TX1BP3_PDZ; TX1BP3_PDZ bait vs MBP): 0.0117 | pKd (TX1BP3_PDZ; TX1BP3_PDZ bait, not filtered for significance (pKdsign N/D)): 3.0735 | Difference log2 (TX1BP3_PDZ; TX1BP3_PDZ vs MBP): -0.01698 | Ratio TX1BP3/MBP (TX1BP3_PDZ; TX1BP3_PDZ): 0.9883 | Ratio DLG1_1/MBP (DLG1_PDZ_1; DLG1_PDZ_1, total Jurkat extract): 1.036 | BI (DLG1_PDZ_1; DLG1_PDZ_1 bait vs MBP, total Jurkat extract): -0.03605 | Difference log2 (DLG1_PDZ_1; DLG1_PDZ_1 vs MBP, total Jurkat extract): 0.0511 | Ratio SCRIB_2/MBP (SCRIB_PDZ_2; nHU-MS, SCRIB_PDZ_2, total Jurkat extract): 1.014 | BI (SCRIB_PDZ_2; nHU-MS, SCRIB_PDZ_2 bait vs MBP, total Jurkat extract): -0.01381 | Difference log2 (SCRIB_PDZ_2; nHU-MS, SCRIB_PDZ_2 vs MBP, total Jurkat extract): 0.01978 | BI (SNX27_PDZ): 0.08384 | Difference log2 (SNX27_PDZ): -0.1263 | Ratio SNX27/MBP (SNX27_PDZ): 0.9162 | pKd (SNX27_PDZ; apparent, not filtered for significance): 3.962 | Difference log2 (DLG1_PDZ_2; DLG1_PDZ_2 bait vs MBP): 0.1631 | Ratio DLG1_2/MBP (DLG1_PDZ_2; DLG1_PDZ_2 bait vs MBP): 1.12 | BI (DLG1_PDZ_2; DLG1_PDZ_2 bait): -0.1197

Source: article PMC9770967, “Native holdup (nHU) to measure binding affinities from cell extracts” (Science Advances, 2022)
